# Values quoted from earlier work, collected in PMC10947368.
# Legend:
# IL-2Rα (Homo sapiens) = IL-2Rα (Homo sapiens) (UniProt P01589)
# [1] = molecular target: IL-2Rβ/γc heterodimeric receptor (Homo sapiens) (UniProt P14784)
# Sequence of UniProt P14784 (P14784 27-240, chain 1 of 2): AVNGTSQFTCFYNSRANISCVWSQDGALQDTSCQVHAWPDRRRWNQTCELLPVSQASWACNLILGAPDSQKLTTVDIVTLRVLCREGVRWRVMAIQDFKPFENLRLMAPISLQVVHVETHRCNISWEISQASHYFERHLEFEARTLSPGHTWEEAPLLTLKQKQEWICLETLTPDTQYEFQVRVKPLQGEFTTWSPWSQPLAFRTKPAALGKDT
# Sequence of UniProt P14784 (P31785 23-262, chain 2 of 2, further chain): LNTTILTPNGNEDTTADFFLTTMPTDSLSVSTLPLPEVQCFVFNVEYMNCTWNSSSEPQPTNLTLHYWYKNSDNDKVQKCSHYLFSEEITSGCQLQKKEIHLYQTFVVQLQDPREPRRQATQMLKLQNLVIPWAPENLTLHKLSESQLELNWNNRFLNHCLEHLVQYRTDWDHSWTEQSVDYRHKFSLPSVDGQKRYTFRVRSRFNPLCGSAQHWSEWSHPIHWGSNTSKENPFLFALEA
# Sequence of UniProt P01589 (P01589 22-240): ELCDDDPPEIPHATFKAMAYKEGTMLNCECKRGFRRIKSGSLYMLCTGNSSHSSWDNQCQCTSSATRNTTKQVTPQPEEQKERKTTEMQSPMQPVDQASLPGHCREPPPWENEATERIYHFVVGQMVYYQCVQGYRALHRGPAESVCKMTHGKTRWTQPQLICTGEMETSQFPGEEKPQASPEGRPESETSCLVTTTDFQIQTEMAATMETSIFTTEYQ
substance,measurement,setting,value
Interleukin-2 (from UniProt P60568),Kd,IL-2Rα (Homo sapiens),10 nM
same,Kd,[1],1 nM
